# US20140023715A1 (EMORY UNIVERSITY, published 2014)
# Target: T1, uPAR (species and form not stated)
# T1 construct: also called uPA receptor
# T1 sequence (Q03405 23-305): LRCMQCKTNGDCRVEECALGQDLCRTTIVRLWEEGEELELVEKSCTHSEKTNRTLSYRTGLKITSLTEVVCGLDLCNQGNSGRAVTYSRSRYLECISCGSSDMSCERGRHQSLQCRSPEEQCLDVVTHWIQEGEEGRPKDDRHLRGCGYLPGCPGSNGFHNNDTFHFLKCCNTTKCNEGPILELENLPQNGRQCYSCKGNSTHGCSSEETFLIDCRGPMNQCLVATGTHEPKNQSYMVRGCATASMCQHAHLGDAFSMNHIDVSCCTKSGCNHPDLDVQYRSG
binder,measurement,value
"recombinant mouse amino terminal fragment (ATF, 135 aa) of uPA (ligand, UniProt P06869 21-155, looked up, range 1-135; 17 kDa, made in E. coli BL21; also called mouse ATF peptide; murine ATF; not shown: tag from vector pET101/D-TOPO (purified on Ni-NTA)) GSVLGAPDESNCGCQNGGVCVSYKYFSRIRRCSCPRKFQGEHCEIDASKTCYHGNGDSYRGKANTDTKGRPCLAWNAPAVLQKPYNAHRPDAISLGLGKHNYCRNPDNQKRPWCYVQIGLRQFVQECMVHDCSLS",Kd,< 1 nM
